In patent US6485937:

Columns and labels:
[1] = molecular target: carboxy terminal domain (CTD) of RNA polymerase II fused to GST (GST-CTD) [GST: P08515]
[2] = molecular target: HIV TAT trans-activating protein (wildtype TAT, His-tagged fusion)

B1: FLAG-epitope tagged HIV tat interacting protein of 30 kDa (f-TIP30) (protein)
chain: DYKDDDDKMAETEALSKLREDFRMQNKSVFILGASGETGRVLLKEILEQGLFSKVTLIGRRKLTFDEEAYKNVNQEVVDFEKLDDYASAFQGHDVGFCCLGTTRGKAGAEGFVRVDRDYVLKSAELAKAGGCKHFNLLSSKGADKSSNFLYLQVKGEVEAKVEELKFDRYSVFRPGVLLCDRQESRPGEWLVRKFFGSLPDSWASGHSVPVVTVVRAMLNNVVRPRDKQMELLENKAIHDLGKAHGSLKP
With B1 the “in vitro kinase assay (phosphorylation of GST-CTD, [g-32P]ATP, autoradiography)” value [1] was “it could phosphorylate the carboxy terminal domain (CTD) of RNA polymerase II fused to GST (GST-CTD) in an in vitro kinase assay” and the “stimulation of f-TIP30 kinase activity on GST-CTD substrate (in vitro kinase assay)” value [2] was “stimulate the kinase activity of recombinant f-TIP30 on GST-CTD substrate in a dose dependant manner”.
